These results are taken from patent publication US20110059095A1 (Regeneron, published 2011).

For orientation: EC50 means the concentration that produces a half-maximal response. A lower EC50 goes with greater potency. By Kd is commonly meant the constant that tells how readily two partners part at equilibrium.

Where no end group is shown, it is not given here. The star is where a group is joined. Biotin = O=C1N[C@H]2[C@H](CS[C@H]2CCCCC(=O)*)N1

Test [1] has as its target T1, Peptide E (mouse PAR-2), unbiotinylated (Mouse (Mus musculus)).
T1 construct: also called Peptide E No Biotin
T1 peptide: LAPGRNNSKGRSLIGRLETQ
Nature of the test: peptide ELISA titration; ELISA titration, antibody 13.3 nM to 0.22 pM, sigmoidal fit. How it is done:
Anti-PAR-2 antibodies were tested for their ability to bind to the PAR-2 peptides. Various PAR-2 Peptides (Table 3) were coated onto 96-well plates at a concentration of 2 μg/ml and incubated overnight followed by blocking in a suitable blocking agent for one hour. […] Purified anti-PAR-2 antibodies were added to the plate coated with PAR-2 peptides to a final concentration ranging from 0.2 to 2.0 μg/ml and incubated for one hour at room temperature. Detection of bound antibodies was determined with Horse-Radish Peroxidase (HRP) conjugated anti-mouse or human IgG (Jackson Immuno Research Lab, West Grove, Pa.) and developed by standard colorimetric response using tetramethylbenzidine (TMB) substrate. Absorbance was read at OD₄₅₀ for 0.1 second.
In another experiment, selected anti-PAR-2 antibodies cloned onto human IgG4 were tested for binding to unbiotinylated and biotinylated forms of PAR-2 peptides (Peptides A, E, F and G; as described above). […] Absorbance values at 450 nm were analyzed using a sigmoidal dose-response model in GraphPad Prism (GraphPad Software, Inc., La Jolla, Calif.) and EC₅₀ values were reported (Table 9). EC₅₀ values are defined as the antibody concentration required to achieve 50% maximal binding to PAR-2 peptide.

Test [2] concerns the target T2, Peptide E (mouse PAR-2), N-terminal biotinylated (Mouse (Mus musculus), N-terminal biotin via G4S linker).
T2 construct: also called Peptide E N-Term
T2 peptide: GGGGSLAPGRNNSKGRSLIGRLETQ
Nature of the test: peptide ELISA titration.

For test [3], the target named is T3, Peptide G (rat PAR-2), N-terminal biotinylated (Rat (Rattus norvegicus), N-terminal biotin via G4S linker).
T3 construct: also called Peptide G N-Term
T3 peptide: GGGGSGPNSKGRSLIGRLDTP
Nature of the test: peptide ELISA titration. (ELISA stands for enzyme-linked immunosorbent assay.)

The target of test [4] is T4, Peptide G (rat PAR-2), C-terminal biotinylated (Rat (Rattus norvegicus), C-terminal biotin via G4S linker).
T4 construct: also called Peptide G C-Term
T4 peptide: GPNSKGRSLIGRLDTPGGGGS
Nature of the test: peptide ELISA titration.

The target of test [5] is T5, Peptide G (rat PAR-2), unbiotinylated (Rat (Rattus norvegicus)).
T5 construct: also called Peptide G No Biotin
T5 peptide: GPNSKGRSLIGRLDTP
Nature of the test: peptide ELISA titration.

Test [6] addresses T6, Peptide M (human PAR-4), unbiotinylated (Human).
T6 peptide: ESGSTGGGDDSTPSILPAP
Nature of the test: SPR, antibody captured. Background: Surface plasmon resonance follows binding to a sensor surface in real time, without labels.

For test [7], the target named is T7, Peptide L (human PAR-3), unbiotinylated (Human).
T7 peptide: DTNNLAKPTLPIKTFRGA
Nature of the test: SPR, antibody captured.

Test [8] addresses T8, Peptide A (human PAR-2), unbiotinylated (Human).
T8 construct: also called Peptide A No Biotin
T8 peptide: GTNRSSKGRSLIGKVDGT
Nature of the test: SPR, antibody captured.

Test [9] concerns the target T9, Peptide K (human PAR-1), unbiotinylated (Human).
T9 peptide: ATNATLDPRSFLLRNPND
Nature of the test: SPR, antibody captured.

The target of test [10] is T2, Peptide E (mouse PAR-2), N-terminal …. Nature of the test: SPR, peptide immobilized.
The target of test [11] is T3, Peptide G (rat PAR-2), N-terminal …. Nature of the test: SPR, peptide immobilized.
The target in test [12] is T10, Peptide C (human PAR-2), N-terminal biotinylated (Human).
T10 construct: also called Peptide C N-Term
T10 peptide: Biotin-GGGGSSLIGKV
Nature of the test: SPR, peptide immobilized.

For a further test, the target named is T11, Peptide I (dog PAR-2) (Dog (Canis familiaris)).
T11 peptide: GTNRTSKGRSLIGKTDSS
Nature of the test: SPR, antibody captured.

Test [13] has as its target T5, Peptide G (rat PAR-2), unbiotinylated. Nature of the test: SPR, antibody captured.

B1: H4H579P (antibody, human IgG4, V domains shown)
VH: QVQLVESGGGVVQPGRSLRLSCVASGFTFSRYGMHWVRQAPGKGLEWLIVISYDGINKYYADSVKGRFTISRDNSKNTVYLQMNSLRAEDTGVYYCAKGDFWSGYFDYWGQGTLVTVSS
VL: DIVMTQTPLSSPVTLGQPASISCRSSQSLVHSDGNTYLSWLHQRPGQPPRLLIYKISNRFSGVPDRFSGSGAGTDFTLQISRVEAEDVGIYYCMQGTQFPTFGGGTKVEIK
notes: also called H1H579P variable regions
Take B1: the EC50 in test [1] turned out to be 0.713 nM; in [2], 0.54 nM; in [3] it was 0.059 nM; in test [4], 0.044 nM; in test [5], 0.055 nM. Further, the binding result in [6], in [7], in test [9] and in [12] was “no binding” throughout. In addition, the equilibrium dissociation constant (Kd) turned out to be 15 nM in [8]; 3.4 nM in [10]; 1.16 nM in [11]; 311 nM with Peptide I (dog PAR-2); 134 nM in [13]. For the same molecule, the T1/2 was determined as 4 min in test [8]; 20 min in test [10]; 38 min in test [11]; 0.26 min with Peptide I (dog PAR-2); 0.45 min in test [13].
